Results: patent publication US20080014172A1

Target: TNFα (R&D Systems cat# 210-TA) (UniProt P01375)
Assay: cell-based or functional assay

Sequence of UniProt P01375 (P01375 77-233 limits assumed): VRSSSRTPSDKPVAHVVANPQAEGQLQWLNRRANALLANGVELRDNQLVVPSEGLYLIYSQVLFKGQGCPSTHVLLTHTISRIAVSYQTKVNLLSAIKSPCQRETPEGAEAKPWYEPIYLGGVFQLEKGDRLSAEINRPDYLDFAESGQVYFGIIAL

TNFα binding protein (TBP) showed an IC50 on TNFα-induced binding of Fibronectin-coated beads to BEND cells of 0.769 µg/mL.
